Assay results taken from PMC5850324, “Interactions between the Hepatitis C Virus Nonstructural 2 Protein and Host Adaptor Proteins 1 and 4 Orchestrate Virus Release” (mBio, 2018).

B1: GLuc2-NS2 (hepatitis C virus nonstructural 2 protein, wild type) [hepatitis C virus (J6/JFH genome)] / GLuc1-tagged μ subunit of the AP-4 complex [not stated] (parent complex)
chain 1: YDASVHGQIGAALLVLITLFTLTPGYKTLLSRFLWWLCYLLTLAEAMVQEWAPPMQVRGGRDGIIWAVAIFCPGVVFDITKWLLAVLGPAYLLKGALTRVPYFVRAHALLRMCTMVRHLAGGRYVQMVLLALGRWTGTYIYDHLTPMSDWAANGLRDLAVAVEPIIFSPMEKKVIVWGAETAACGDILHGLPVSARLGREVLLGPADGYTSKGWSLL
chain 2: MISQFFILSSKGDPLIYKDFRGDSGGRDVAELFYRKLTGLPGDESPVVMHHHGRHFIHIRHSGLYLVVTTSENVSPFSLLELLSRLATLLGDYCGSLGEGTISRNVALVYELLDEVLDYGYVQTTSTEMLRNFIQTEAVVSKPFSLFDLSSVGLFGAETQQSKVAPSSAASRPVLSSRSDQSQKNEVFLDVVERLSVLIASNGSLLKVDVQGEIRLKSFLPSGSEMRIGLTEEFCVGKSELRGYGPGIRVDEVSFHSSVNLDEFESHRILRLQPPQGELTVMRYQLSDDLPSPLPFRLFPSVQWDRGSGRLQVYLKLRCDLLSKSQALNVRLHLPLPRGVVSLSQELSSPEQKAELAEGALRWDLPRVQGGSQLSGLFQMDVPGPPGPPSHGLSTSASPLGLGPASLSFELPRHTCSGLQVRFLRLAFRPCGNANPHKWVRHLSHSDAYVIRI

Variants of: B1
Assay: PCA (protein-fragment complementation assay); parent: 1; read off a plot

Variant	ratio to parent
chain 1 E200A	~1
chain 1 L202A	~0.57
chain 1 L203A	~0.62
chain 1 L216A	~0.56
chain 1 L217A	~0.52
chain 1 D207A	~0.6
